In patent US20250152742A1, “COMPOSITIONS AND METHODS FOR NEUROLOGICAL DISEASES” (Trames Bio, Inc., priority 2022, published 2025):
Substitutions are numbered along the chain they refer to. In names and notes the source's numbering stands.

B1: CODA806: engineered receptor: Y115D, L131Q in SEQ ID NO: 33 (Chemogenic receptor-11) (protein)
chain: MRCSPGGVWLALAASLLHVSLQGEFQRKLYKELVKNYNPLERPVANDSQPLTVYFSLSLLQIMDVDEKNQVLTTNIWLQMSWTDHYLQWNVSEYPGVKTVRFPDGQIWKPDILLDNSADERFDATFHTNVQVNSSGHCQYLPPGIFKSSCPMDLKNFPMDVQTCKLKFGSWSYGGWSLDLQMQEADISGYIPNGEWDLVGIPGKRSERFYECCKEPYPDVTFTVTMRRRMGYYLIQMYIPSLLIVILSWISFWINMDAAPARVGLGITTVLTMTTQSSGSRASLPKVSYVKAIDIWMAVCLLFVFSALLEYAAVNFVSRQHKELLRFRRKRRHHKSPMLNLFQEDEAGEGRFNFSAYGMGPACLQAKDGISVKGANNSNTTNPPPAPSKSPEEMRKLFIQRAKKIDKISRIGFPMAFLIFNMFYWIIYKIVRREDVHNQ
modifications: synthetic sequence of chimeric LGIC
B2: CODA1027: engineered receptor: R101F, L131D in SEQ ID NO: 33 (protein)
chain: B1 chain with R101F, D115Y, Q131D
modifications: synthetic sequence of chimeric LGIC
B3: CODA1045: engineered receptor: R101W, Y210V in SEQ ID NO: 33 (protein)
chain: B1 chain with R101W, D115Y, Q131L, Y210V
modifications: synthetic sequence of chimeric LGIC
B4: CODA1039: engineered receptor: Y115E, Y210W in SEQ ID NO: 33 (protein)
chain: B1 chain with D115E, Q131L, Y210W
modifications: synthetic sequence of chimeric LGIC
B5: COAD1055 (protein)
chain: B1 chain with R101W, D115E, Q131L, Y210W
modifications: synthetic sequence of chimeric LGIC
B6: CODA1025: engineered receptor: R101F, L131G in SEQ ID NO: 33 (protein)
chain: B1 chain with R101F, D115Y, Q131G
modifications: synthetic sequence of chimeric LGIC
B7: COAD1056 (protein)
chain: B1 chain with R101F, D115E, Q131L, Y210W
modifications: synthetic sequence of chimeric LGIC
B8: CODA1048: engineered receptor: R101F, Y210F in SEQ ID NO: 33 (protein)
chain: B1 chain with R101F, D115Y, Q131L, Y210F
modifications: synthetic sequence of chimeric LGIC
B9: CODA1054: engineered receptor: R101M, L131F in SEQ ID NO: 33 (protein)
chain: B1 chain with R101M, D115Y, Q131F
modifications: synthetic sequence of chimeric LGIC

system: rat DRG neurons; test: Rheobase shift / evoked action potentials, rat DRG neurons (current clamp); assay type: cell-based; conditions: Acetylcholine at 3.0 mM; transduced neurons; n=4; FIG. 4B
Experimental: Using whole cell manual patch clamp electrophysiology in HEK293 cells, rat DRG neurons and rat hippocampal neurons, the EC50 of the various engineered receptors disclosed herein to Ach and non-native ligands was measured using the Hill equation with peak current measurements from escalating doses of ligand. The rheobase shift was also measured in rat DRG neurons, which reflects the efficacy of the receptors. To calculate the rheobase, first, the amount of current that can produce an action potential was determined. Then the ligand was added, followed by a step wise increase in the current injected up to 700 pA.
DRG rheobase experiments were performed in current clamp mode using a potassium-based internal solution containing: 100 mM potassium D-gluconate, 28 mM potassium chloride, 1 mM magnesium chloride hexahydrate, 5 mM magnesium ATP, 10 mM HEPES, and 0.5 mM EGTA (pH=7.2 with potassium hydroxide, osmolarity=290-295 mOsm, calculated liquid junction potential=−13.5 mV). To measure DRG input resistance and rheobase, 500 ms current steps (−200 pA to 700 pA) were applied the membrane in the presence and absence of a compound. No holding current was applied to the membrane for cells included in the final datasets. Data were acquired at 10 kHz, with Bessel filter at 2 kHz and series resistance compensation at 100%. Rheobase was defined as the smallest depolarizing current injection required to cause an action potential to fire in the cell. In a subset of cells, the rheobase was ambiguous, since the action potential appeared to be graded in amplitude. In these cases, a […] of the trace clarified the rheobase. Input resistance was measured from the negative current injections, calculated as the difference in membrane potential at steady state divided by the current injection amplitude and then averaged across the four negative current steps for each recording. Resting membrane potential was measured from the first 100 ms of each sweep, averaged for each recording, and corrected for liquid junction potential. One-way ANOVA with multiple comparisons was used to test for significance of difference in rheobase and input resistance between baseline, drug, and wash conditions.
DRG neurons: DRG rheobase experiments were performed in current clamp mode using a potassium-based internal solution containing (in mM): 100 potassium D-gluconate (G4500), 28 potassium chloride (P9333), 1 magnesium chloride hexahydrate (M2670), 5 magnesium ATP (A9187), 10 HEPES (54457), and 0.5 EGTA (3777) (pH=7.2 with potassium hydroxide, osmolarity=290-295 mOsm, calculated liquid junction potential=−13.5 mV). To measure DRG input resistance and rheobase, 500 ms current steps (−200 pA to 700 pA) were applied the membrane (−400 pA to 700 pA in an early version of the protocol) in the presence and absence of a compound. No holding current was applied to the membrane for cells included in the final datasets. Data were acquired at 10 kHz, with Bessel filter at 2 kHz and series resistance compensation at 100%. Rheobase was defined as the smallest depolarizing current injection required to cause an action potential to fire in the cell. In a subset of cells, the rheobase was ambiguous, since the action potential appeared to be graded in amplitude. In these cases, a […] of the trace clarified the rheobase. Input resistance was measured from the negative current injections, calculated as the difference in membrane potential at steady state divided by the current injection amplitude and then averaged across the four negative current steps for each recording. Resting membrane potential was measured from the first 100 ms of each sweep, averaged for each recording, and corrected for liquid junction potential. One-way ANOVA with multiple comparisons was used to test for significance of difference in rheobase and input resistance between baseline, drug, and wash conditions.

Molecule | effect on evoked action potentials
B1 | no effect

same assay, conditions: RG-3487 (SA-2) at 3 μM; transduced rat DRG neurons; FIG. 4A

Molecule | current injection evoked action potentials
B1 | reversibly inhibits current injection evoked action potentials

same assay, conditions: RG-3487 (SA-2) at 3 μM; transduced rat DRG neurons; n=7

Molecule | increase in the current required to elicit action potentials [x]
B1 | ~3

same assay, conditions: baseline, no ligand; neurons expressing the receptor

Molecule | Rheobase Shift; Rat DRG Neurons, Baseline [pA]
B1 | 163 ± 28
B2 | 100 ± 23
B3 | 141 ± 22
B4 | 88 ± 9
B5 | 83 ± 7
B6 | 140 ± 19
B7 | 114 ± 12
B8 | 120 ± 19
B9 | 105 ± 13

same assay, conditions: ligand Facinicline/RG-3487 at EC90

Molecule | Rheobase Shift; Rat DRG Neurons, Facinicline/RG-3487 @ EC90 [pA]
B1 | 625 ± 35

same assay, conditions: ligand TC-5619 at EC90

Molecule | Rheobase Shift; Rat DRG Neurons, +TC-5619 @ EC90 [pA]
B2 | 638 ± 63
B3 | 700 ± 0
B4 | 453 ± 58
B5 | 562 ± 35
B6 | 560 ± 72
B7 | 632 ± 43
B8 | 590 ± 46
B9 | 673 ± 27
